From patent US20230036481A1

What was measured:
[1] = target: CD19 on Raji-Luc cells (CD19+ B cell lymphoma cell line) (human) (UniProt P15391); assay: cell-based or functional assay
[2] = target: tagged human CD19 recombinant protein (human) (UniProt P15391); assay: flow cytometry; transduced oNK cells stained with tagged CD19 recombinant protein and fluorescent anti-Myc antibody, after sorting
[3] = target: tagged human CD19 recombinant protein (human) (UniProt P15391); assay: flow cytometry; transduced oNK cells stained with tagged CD19 recombinant protein and fluorescent anti-Myc antibody, before enrichment

## anti-CD19 chimeric antigen receptor (CAR) expressed on oNK cells (CAR19-oNK)
[1]
  percentage of cytotoxicity (luciferase luminescence), E:T 0.2:1, 1 hour: 13.9%
  percentage of cytotoxicity (luciferase luminescence), E:T 0.5:1, 1 hour: 45.9%
  percentage of cytotoxicity (luciferase luminescence), E:T 1:1, 1 hour: 64.1%
  percentage of cytotoxicity (luciferase luminescence), E:T 2:1, 1 hour: 80%
  percentage of cytotoxicity (luciferase luminescence), E:T 5:1, 1 hour: 91.4%
[2]
  double positive of fluorescent signal of expressed Myc tag and bound human CD19 recombinant protein (% of cells): 82.3%
[3]
  double positive of fluorescent signal of expressed Myc tag and bound human CD19 recombinant protein (% of cells): 9.06%
